Measurements reported in publication PMC4136481.

Target: T1, basic region-leucine zipper (B Zip) domain of the transcription factor CCAAT/enhancer binding protein α (C/EBPα) (rat), P05554
T1 chain: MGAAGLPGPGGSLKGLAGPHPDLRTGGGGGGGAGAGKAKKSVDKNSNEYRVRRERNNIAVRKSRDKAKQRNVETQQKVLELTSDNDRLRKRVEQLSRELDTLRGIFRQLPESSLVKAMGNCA
Assay: FRET or BRET
Settings: remark: other sources report otherwise

donor fluorescence lifetime τm in the presence of the acceptor, mean: 2.78 ns
B1: basic region-leucine zipper (B Zip) domain of the transcription factor CCAAT/enhancer binding protein α (C/EBPα), P05554 237-358 (domain or fragment)
chain: MGAAGLPGPGGSLKGLAGPHPDLRTGGGGGGGAGAGKAKKSVDKNSNEYRVRRERNNIAVRKSRDKAKQRNVETQQKVLELTSDNDRLRKRVEQLSRELDTLRGIFRQLPESSLVKAMGNCA
